The values below come from patent publication US20220162331A1 (CHENGDU CONMED BIOSCIENCES, published 2022).

Residue numbers refer to the chain shown, from its start.

The target in experiment [1] is T1, recombinant human CD73 extracellular domain (Trp27-Lys546) with C-terminal 6-histidine tag (human, UniProt P21589 27-547).
T1 construct: also called hCD73; hCD73-cHis
T1 sequence: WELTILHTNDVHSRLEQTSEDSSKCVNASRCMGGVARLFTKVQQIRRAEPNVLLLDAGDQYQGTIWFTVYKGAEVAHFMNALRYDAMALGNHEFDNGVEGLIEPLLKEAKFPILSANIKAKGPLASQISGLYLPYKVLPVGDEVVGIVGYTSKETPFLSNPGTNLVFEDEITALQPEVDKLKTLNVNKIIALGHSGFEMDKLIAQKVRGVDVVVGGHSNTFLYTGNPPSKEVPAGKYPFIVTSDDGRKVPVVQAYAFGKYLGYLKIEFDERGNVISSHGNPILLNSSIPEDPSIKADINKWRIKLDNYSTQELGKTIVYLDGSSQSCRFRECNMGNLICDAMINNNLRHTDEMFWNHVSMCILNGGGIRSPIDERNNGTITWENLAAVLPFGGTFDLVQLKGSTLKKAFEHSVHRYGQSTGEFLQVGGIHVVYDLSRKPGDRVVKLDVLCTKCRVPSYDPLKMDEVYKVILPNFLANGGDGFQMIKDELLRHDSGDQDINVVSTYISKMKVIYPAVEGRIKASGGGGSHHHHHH
Briefly: SPR, Biacore T200, antibody captured on Protein A chip, hCD73 ECD as analyte, 1:1 Langmuir. The protocol:
The affinity of CD73 antibody was determined by plasma surface resonance on Biacore T200. At room temperature, the antibody concentration was diluted to 0.5 μg/mL with 1×HBS-EP buffer (prepared from HBS-EP+Buffer 10×, GE, BR1008-26), the Protein A chip (GE, 29-1275-56) was coated with a flow rate of 10 μL per minute, the capture time was about 40 seconds, and the coated RU value was controlled to be about 100 RU. The recombinant human CD73 extracellular domain protein was diluted to 3 μg/mL with 1×HBS-EP buffer, diluted to two-fold gradient, a total of 6 concentrations, 200 μL of each concentration gradient. The 1×HBS-EP buffer was used as a control, the flow rate was 30 μl/min, the binding time was 120 seconds, and the dissociation time was 600 seconds. The affinity was fitted using Langmuir 1:1 Kinetic theoretical model and analyzed by Biacore T200 Evaluation Software (Table 3).

Experiment [2] deals with T2, human CD73 on Calu6 cells (human, UniProt P21589 27-549).
T2 construct: whole, on cells; Endogenous CD73 of the Calu6 cell line; also called CD73 on cell membrane surface
T2 sequence (looked up): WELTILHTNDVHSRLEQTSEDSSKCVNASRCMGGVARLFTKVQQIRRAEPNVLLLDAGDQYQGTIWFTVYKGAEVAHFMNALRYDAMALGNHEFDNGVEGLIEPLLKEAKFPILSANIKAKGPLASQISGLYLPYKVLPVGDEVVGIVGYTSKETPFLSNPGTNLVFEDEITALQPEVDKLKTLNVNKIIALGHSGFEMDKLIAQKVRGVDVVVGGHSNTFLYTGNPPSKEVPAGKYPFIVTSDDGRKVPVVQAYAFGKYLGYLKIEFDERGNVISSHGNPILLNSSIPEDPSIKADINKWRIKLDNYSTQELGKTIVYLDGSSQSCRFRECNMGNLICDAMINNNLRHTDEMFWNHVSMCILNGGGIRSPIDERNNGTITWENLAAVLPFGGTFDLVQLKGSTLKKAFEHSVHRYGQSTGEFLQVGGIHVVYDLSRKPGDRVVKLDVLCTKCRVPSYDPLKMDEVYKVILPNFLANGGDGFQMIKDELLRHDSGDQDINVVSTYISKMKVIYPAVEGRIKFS
Nature of the experiment: FACS on Calu6 cells.

The target of experiment [3] is T2, human CD73 on Calu6 cells. Nature of the experiment: cell-based or functional assay.
The target of experiment [4] is T2, human CD73 on Calu6 cells. Briefly: cell-based or functional assay. This is another data set of the same source.
Experiment [5] has as its target T3, human full-length CD73 on hCD73-CHO-1C11 cells (human, UniProt P21589 27-549).
T3 construct: it may be a nucleotide entry; also called CHO-CD73-1C11
T3 sequence: T2 sequence (looked up)
Briefly: FACS on CHO-CD73-1C11 cells.

Experiment [6] deals with T1, recombinant human CD73 extracellular …. Briefly: ELISA, plate coated with recombinant CD73 extracellular domain. (In general: ELISA stands for enzyme-linked immunosorbent assay.)
Experiment [7] concerns the target T4, recombinant cynomolgus monkey CD73 extracellular domain (Trp27-Lys546) (cynomolgus monkey, UniProt P21589 27-547 (human entry)).
T4 construct: also called cynoCD73; recombinant monkey CD73 extracellular domain
T4 chain: T1 sequence with M199T, T350A, V466I
The experiment is described as above.

B1: humanized anti-CD73 antibody 22C12 VH-v10/VL-v2 (antibody, V domains shown)
VH: QVQLVQSGAEVKKPGASVKVSCKASGYTFTGYWIQWVRQAPGQGLEWMGAIYPGDEDTRYTQKFQGRVTMTADTSISTAYMELSRLRSDDTAVYYCARGNWDDWDFDVWGQGTTVTVSS
VL: DIQMTQSPSSLSASVGDRVTITCRASQDISNYLNWYQQKPGKAPKLLIHYTSRLHSGVPSRFSGSGSGTDYTLTISSLQPEDFATYYCQQGDTLPWTFGQGTKVEIK
notes: Human IgG1 CH1-CH3 constant region and kappa constant region; also called hu22C12 VHv10 (printed hu22C12 Vilv10) + hu22C12 Vkv2
As for B1, in experiment [1], the Kd came to 0.134 nM, the off-rate constant (koff) is 0.000225 s⁻¹ and the kon worked out at 1.68e+06 M⁻¹ s⁻¹.

B2: humanized anti-CD73 antibody 22C12 VH-v10/VL-v3 (antibody, V domains shown)
VH: B1 VH
VL: B1 VL with Y71F
notes: Human IgG1 CH1-CH3 constant region and kappa constant region; also called hu22C12 VHv10 (printed hu22C12 Vilv10) + hu22C12 Vkv3
With B2, in experiment [1], the dissociation constant (Kd) worked out at 0.0956 nM, the koff was found to be 0.000179 s⁻¹ and the kon is 1.87e+06 M⁻¹ s⁻¹.

B3: humanized anti-CD73 antibody 22C12 VH-v9/Vk-v2 (antibody, V domains shown)
VH: B1 VH with E56S
VL: B1 VL
notes: Human IgG1 CH1-CH3 constant region and kappa constant region; also called hu22C12 VHv9 (printed hu22C12V11v9) + hu22C12 Vkv2
Turning to B3, in experiment [1], the Kd was found to be 0.135 nM, the koff came out at 0.000165 s⁻¹ and the kon stood at 1.22e+06 M⁻¹ s⁻¹.

B4: CD73 antibody 2D4 (antibody, V domains shown)
VH: EVKLVESGGGLVQPGGSLKLSCATSGFTFSDYYMYWVRQTPEKRLEWVAYISNVGGSTYYPDTVKGRFTISRDNAKNTLYLQMSRLKSEDTAIYYCARGDGYYGYYFDVWGAGTTVTVSS
VL: QIVLTQSPAIMSASPGEKVTMTCSASSSVSYMHWYQQKSGTSPKRWIYDTSKLASGVPARFSGSGSGTSYSLTISSMEAEDAATYYCQQWSSNPYTFGGGTKLEIK
notes: also called Clone 2D4
With B4, the midpoint of the response in experiment [2], the EC50, lay at 1.25 nM. Further, the “Inhibition of CD73 enzyme activity IC50(nM), Calu6” value (“Inhibition” for short) in experiment [3] came out at 0.47 nM. In experiment [4], the “CD73 endocytosis ratio %, 30 minutes” value came out at 19.1%; the “CD73 endocytosis ratio %, 60 minutes” value came to 28.1%; the “CD73 endocytosis ratio %, 120 minutes” value was found to be 29.7%; the “CD73 endocytosis ratio %, 240 minutes” value is 39.5%. Further, the “CD73 endocytosis ratio %, 480 minutes” value in experiment [4] worked out at 36.9%. This molecule also displayed an EC50 in experiment [5] of 1.76 nM. For the same molecule, the EC50 in experiment [6] was determined as 0.02 nM. In experiment [7], the EC50 amounted to 0.02 nM.

B5: CD73 antibody 2H2 (antibody, V domains shown)
VH: B4 VH with I93M
VL: B4 VL with Q1E, I2N, A59T, Y70F
notes: also called Clone 2H2
In turn, B5 displayed an EC50 in experiment [2] of 0.93 nM. Moreover, in experiment [3], the “Inhibition” value amounted to 4.03 nM. In experiment [4], the “CD73 endocytosis ratio %, 30 minutes” value was determined as 22.4%; the “CD73 endocytosis ratio %, 60 minutes” value is 27.4%; the “CD73 endocytosis ratio %, 120 minutes” value came to 45.8%; the “CD73 endocytosis ratio %, 240 minutes” value was 33.4%. Besides, the “CD73 endocytosis ratio %, 480 minutes” value in experiment [4] was found to be 49.3%. In experiment [5], this molecule showed an EC50 of 1.53 nM. The EC50 in experiment [6] amounted to 0.02 nM. For the same molecule, the half-maximal effective concentration (EC50) in experiment [7] came out at 0.02 nM.

B6: humanized anti-CD73 antibody 6G8 VH-v1/VK-v1 (antibody, V domains shown)
VH: QVTLRESGPALVKPTQTLTLTCTFSGFSLSTSGMGVGWIRQPPGKALEWLAHIWWDDDKYYNPSLKSRLTISKDTSKNQVVLTMTNMDPVDTATYYCARRERWAWFAYWGQGTLVTVSS
VL: DIQMTQSPSSLSASVGDRVTITCRASQNVFTNVAWYQQKPGKAPKVLIYSASYRYSGVPSRFSGSGSGTDFTLTISSLQPEDFATYFCQQYNSYPTFGQGTKLEIK
notes: Human IgG1 CH1-CH3 constant region and kappa constant region; also called hu6G8 VHv1 + hu6G8 Vkv1
Turning to B6, in experiment [1], the Kd was found to be 0.272 nM, the koff is 0.000106 s⁻¹ and the on-rate constant (kon) amounted to 389000 M⁻¹ s⁻¹.

B7: CD73 antibody 14E4 (antibody, V domains shown)
VH: QVQLQQSGPELVKPGASVKISCKASGYIFTNYYIHWVKQRPGQGLEWIGWIFPGSGNTKYSEKFKDKATLTADTSSSTAYMQLSSLTSEDSAVYFCAGLSDWGQGTTLTVSS
VL: DIQMTQSPSSLSASLGERVSLTCRASQDIGDRLIWLQQEPAGTFKRLIYATSSLDSGVPKRFSGSRSGSDYSLTISSLESEDFVDYYCLQYASSPWTFGGGTKLEIK
notes: Mouse variable regions on human IgG heavy chain constant region and human kappa constant region (chimeric IgG); also called Clone 14E4
Turning to B7, it took 2.56 nM to reach a half-maximal effect in experiment [2] (EC50). Further, the “Inhibition” value in experiment [3] came out at 4.57 nM. Also, in experiment [4], the “CD73 endocytosis ratio %, 60 minutes” value was found to be 19.3%; the “CD73 endocytosis ratio %, 120 minutes” value came to 2.6%; the “CD73 endocytosis ratio %, 240 minutes” value was determined as 12.7%; the “CD73 endocytosis ratio %, 480 minutes” value amounted to 2.6%. In experiment [5], this molecule gave an EC50 of 6.55 nM. Moreover, in experiment [6], the EC50 came out at 0.06 nM. In experiment [7], the EC50 is 0.18 nM.

B8: CD73 antibody 7E10 (antibody, V domains shown)
VH: QVQFQQSGAELVRPGASVKLSCKASGYIFSSYWIQWVKQRPGQGLEWIGAIYPGDGDTRYTQKFKDKATLTADKSSSTAYMQLSSLASEDSAVYYCAGFASWGQGTLVTVSA
VL: B7 VL with D31S, R32S, I34N, A41N, F44I, V84A, W96Y
notes: Mouse variable regions on human IgG heavy chain constant region and human kappa constant region (chimeric IgG); also called Clone 7E10
For B8, the EC50 in experiment [2] came out at 2.52 nM; in experiment [5], 8.59 nM; in experiment [6], 0.07 nM; in experiment [7] it was 0.11 nM. Besides, the “Inhibition” value in experiment [3] came to 7.66 nM. For the same molecule, the “CD73 endocytosis ratio %, 30 minutes” value in experiment [4] turned out to be 9.9%. The “CD73 endocytosis ratio %, 60 minutes” value in experiment [4] turned out to be 25.1%. In addition, in experiment [4], the “CD73 endocytosis ratio %, 240 minutes” value stood at 6.6%. In addition, the “CD73 endocytosis ratio %, 480 minutes” value in experiment [4] worked out at 6.2%.

B9: CD73 antibody 6A8 (antibody, V domains shown)
VH: B8 VH with V12A, A16T, S30T, V37I, D66G, D73E, S84R, V108L
VL: B7 VL with S20N, R32S, A41D, F44I, F83L, W96F
notes: Mouse variable regions on human IgG heavy chain constant region and human kappa constant region (chimeric IgG); also called Clone 6A8
For B9, the EC50 in experiment [2] worked out at 3.51 nM; in experiment [5] it was 11 nM; in experiment [6], 0.08 nM; in experiment [7] it was 0.09 nM. For the same molecule, in experiment [3], the “Inhibition” value came to 6.63 nM. Besides, the “CD73 endocytosis ratio %, 60 minutes” value in experiment [4] turned out to be 16.2%.

B10: CD73 antibody 8A8 (antibody, V domains shown)
VH: B8 VH with V12A, S30T, V37I, D66G, S84R, V108L
VL: B7 VL with D31E, R32S, A41D, F44I, T74S, E81D, A92S, W96Y
notes: Mouse variable regions on human IgG heavy chain constant region and human kappa constant region (chimeric IgG); also called Clone 8A8
In experiment [2], B10 gave an EC50 of 0.61 nM. Further, the “Inhibition” value in experiment [3] was 4.89 nM. Further, in experiment [4], the “CD73 endocytosis ratio %, 30 minutes” value is 21.2%; the “CD73 endocytosis ratio %, 60 minutes” value worked out at 25.6%; the “CD73 endocytosis ratio %, 120 minutes” value is 27.3%; the “CD73 endocytosis ratio %, 240 minutes” value was found to be 44.2%. Further, the “CD73 endocytosis ratio %, 480 minutes” value in experiment [4] was 40.5%. Further, in experiment [5], a half-maximal effect (EC50) was put at 1.47 nM. Moreover, the EC50 in experiment [6] was determined as 0.02 nM. Besides, the EC50 in experiment [7] was found to be 0.02 nM.

A word on the Kd: it is a measure of binding affinity in units of concentration. For orientation: koff means the first-order rate constant of dissociation. Usually kon stands for the second-order rate constant of association. One may read the EC50 as the concentration that produces a half-maximal response.
